Measurements from patent publication US20050255559A1 (published 2005).

B1: human calcium sensitive potassium channel β2 subunit (other)
chain: MFIWTSGRTSSSYRHDEKRNIYQKIRDHDLLDKRKTVTALKAGEDRAILLGLAMMVCSIMMYFLLGITLLRSYMQSVWTEESQCTLLNASITETFNCSFSCGPDCWKLSQYPCLQVYVNLTSSGEKLLLYHTEETIKINQKCSYIPKCGKNFEESMSLVNVVMENFRKYQHFSCYSDPEGNQKSVILTKLYSSNVLFHSLFWPTCMMAGGVAIVAMVKLTQYLSLLCERIQRINR
B2: human calcium sensitive potassium channel β3a subunit (other)
chain: MQPFSIPVQITLQGSRRRQGRTAFPASGKKRETDYSDGDPLDVHKRLPSSTGEDRAVMLGFAMMGFSVLMFFLLGTTILKPFMLSIQREESTCTAIHTDIMDDWLDCAFTCGVHCHGQGKYPCLQVFVNLSHPGQKALLHYNEEAVQINPKCFYTPKCHQDRSDLLNSALDIKEFFDHKNGTPFSCFYSPASQSEDVILIKKYDQMAIFHCLFWPSLTLLGGALIVGMVRLTQHLSLLCEKYSTVVRDEVGGKVPYIEQHQFKLCIMRRSKGRAEKS
B3: human calcium sensitive potassium channel β3c subunit (other)
chain: MFPLLYELTAVSPSPFPQRTAFPASGKKRETDYSDGDPLDVHKRLPSSTGEDRAVMLGFAMMGFSVLMFFLLGTTILKPFMLSIQREESTCTAIHTDIMDDWLDCAFTCGVHCHGQGKYPCLQVFVNLSHPGQKALLHYNEEAVQINPKCFYTPKCHQDRSDLLNSALDIKEFFDHKNGTPFSCFYSPASQSEDVILIKKYDQMAIFHCLFWPSLTLLGGALIVGMVRLTQHLSLLCEKYSTVVRDEVGGKVPYIEQHQFKLCIMRRSKGRAEKS

Each binder was assayed against human calcium sensitive potassium channel α subunit (human Slowpoke α) (human, UniProt Q12791 1-1236) (assay: cell-based or functional assay).
Chain of human calcium sensitive potassium channel α subunit (human Slowpoke α) (Q12791 whole entry): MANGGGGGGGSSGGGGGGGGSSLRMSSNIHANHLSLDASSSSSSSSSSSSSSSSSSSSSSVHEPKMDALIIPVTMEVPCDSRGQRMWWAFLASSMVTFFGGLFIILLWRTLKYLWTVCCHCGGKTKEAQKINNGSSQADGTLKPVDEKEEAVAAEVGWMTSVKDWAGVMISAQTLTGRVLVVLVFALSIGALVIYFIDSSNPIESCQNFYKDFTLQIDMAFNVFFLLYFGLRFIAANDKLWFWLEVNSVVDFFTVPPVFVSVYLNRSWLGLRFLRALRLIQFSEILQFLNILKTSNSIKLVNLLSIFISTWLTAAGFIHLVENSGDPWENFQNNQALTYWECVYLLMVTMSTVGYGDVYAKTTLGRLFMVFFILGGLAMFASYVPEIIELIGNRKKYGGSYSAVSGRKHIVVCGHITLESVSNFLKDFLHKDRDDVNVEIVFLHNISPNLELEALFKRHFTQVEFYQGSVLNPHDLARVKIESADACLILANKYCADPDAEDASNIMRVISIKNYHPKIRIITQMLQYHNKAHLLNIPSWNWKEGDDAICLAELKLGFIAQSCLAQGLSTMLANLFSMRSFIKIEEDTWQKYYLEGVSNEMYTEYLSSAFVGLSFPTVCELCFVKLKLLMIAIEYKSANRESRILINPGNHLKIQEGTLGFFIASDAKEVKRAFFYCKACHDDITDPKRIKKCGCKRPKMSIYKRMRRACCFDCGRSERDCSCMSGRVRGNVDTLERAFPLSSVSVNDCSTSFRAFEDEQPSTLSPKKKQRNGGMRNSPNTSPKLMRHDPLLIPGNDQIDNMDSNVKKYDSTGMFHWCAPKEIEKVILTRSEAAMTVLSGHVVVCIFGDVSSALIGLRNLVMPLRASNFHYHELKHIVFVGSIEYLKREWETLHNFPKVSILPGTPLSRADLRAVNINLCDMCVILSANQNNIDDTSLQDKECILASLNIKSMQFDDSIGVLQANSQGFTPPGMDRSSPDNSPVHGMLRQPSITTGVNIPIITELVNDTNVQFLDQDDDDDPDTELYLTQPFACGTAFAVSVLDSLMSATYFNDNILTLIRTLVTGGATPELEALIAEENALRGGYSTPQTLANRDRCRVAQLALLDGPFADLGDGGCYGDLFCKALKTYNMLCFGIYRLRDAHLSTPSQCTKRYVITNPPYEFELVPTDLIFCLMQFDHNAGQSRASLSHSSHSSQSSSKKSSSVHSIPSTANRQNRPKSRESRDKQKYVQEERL

Question: For B1, which “V1/2 (half-maximal activation voltage, Boltzmann fit, inside-out patches, 30 µM Ca2+)” value is on record?
Answer: -55 mV

Question: B2 was tested. Which “V1/2 (half-maximal activation voltage, Boltzmann fit, inside-out patches, 30 µM Ca2+)” value did it give?
Answer: 45.4 mV

Question: Which “V1/2 (half-maximal activation voltage, Boltzmann fit, inside-out patches, 30 µM Ca2+)” value does the source give for B3 here?
Answer: 20 mV
